US20230104578A1, “ANTI-ADRENOMEDULLIN (ADM) ANTIBODY OR ANTI-ADM ANTIBODY FRAGMENT OR ANTI-ADM NON-IG SCAFFOLD FOR USE IN THERAPY OR PREVENTION OF SHOCK” (ADRENOMED AG, priority 2020, published 2023)

Experiments:
[1] = target: human recombinant adrenomedullin receptor (CRLR+RAMP3) (human)
[2] = target: human recombinant adrenomedullin receptor (CRLR+RAMP3) (human); remark: listed apart in the source

human ADM 22-52 (peptide)
IC50 (read off the curve); cAMP (HTRF) induced by 5.63 nM hADM, % inhibition [1]: 0.3 µM | IC50 (read off the curve); cAMP (HTRF) induced by 0.67 nM mADM, % inhibition [2]: 3 µM
